Values belong to the binder of their own block, whether it stands above or below them.
Tests used:
[1] = molecular target: T1, Human ST2-Fc (R&D Systems, or source not stated in the example) (human, UniProt Q01638 19-328); experiment: Biacore T100, ST2-Fc captured on Protein G', peptide as analyte
T1 construct: extracellular domain; also called sST2.Fc; sST2
T1 sequence (looked up): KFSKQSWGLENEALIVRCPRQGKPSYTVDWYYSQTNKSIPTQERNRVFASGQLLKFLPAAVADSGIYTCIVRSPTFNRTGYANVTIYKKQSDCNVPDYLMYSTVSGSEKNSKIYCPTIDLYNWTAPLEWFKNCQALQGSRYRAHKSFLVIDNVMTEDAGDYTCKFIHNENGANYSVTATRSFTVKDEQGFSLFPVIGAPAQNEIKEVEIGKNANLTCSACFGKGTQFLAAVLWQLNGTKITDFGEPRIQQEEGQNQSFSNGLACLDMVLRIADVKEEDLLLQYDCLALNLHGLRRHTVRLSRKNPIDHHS
Description: The identified peptide together with a truncate ([…]) and scrambled variants of both, were then chemically synthesised and used in confirmatory T100 Biacore (GE Healthcare) binding studies. Protein G′ (Sigma Aldrich, P4689) was covalently coupled to the surface of a CM5 sensor chip (GE Healthcare) using standard amine coupling reagents according to manufacturer's instructions. The protein G′ surface was used to capture H338L293 or ST2-Fc via the Fc domain to provide a surface density of approximately 290 RU per cycle. IL33 peptides prepared in HBS-EP+ buffer, at a range of concentrations were passed over the sensor chip surface. The surface was regenerated using two 10 mM Glycine washes of pH 1.7 and pH 1.5 between each injection of antibody. The resulting sensorgrams were evaluated using Biacore T100 evaluation software 2.0.3 (GE Healthcare) and fitted to a 1:1 Langmuir binding model, to provide relative binding data.

[2] = molecular target: T2, Mouse IL-33 Flag®His (mouse); experiment: HTRF, test protein competing with biotinylated IL33-01 for DyLight650 labelled IgG
T2 construct: C-terminal FLAG 10xHis tag, E. coli; also called Mature Mouse IL-33_FH; mouse IL-33 FH
T2 chain: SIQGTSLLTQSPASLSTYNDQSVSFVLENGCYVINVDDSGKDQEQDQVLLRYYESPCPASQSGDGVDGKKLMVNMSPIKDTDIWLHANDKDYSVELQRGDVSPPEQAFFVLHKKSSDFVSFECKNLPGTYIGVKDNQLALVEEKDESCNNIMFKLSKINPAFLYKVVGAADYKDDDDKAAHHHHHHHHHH
Procedure: (§1) Human, cyno and mouse IL-33 FLAG® His (described in Example 1 and Table 21), Human IL-1 alpha and IL-1 beta (R&D Systems) (Table 21) or rat IL-33 (GenScript) were tested for inhibition of human IL-33 binding to DyLight650 labelled 33_640087-7B or DyLight650 labelled 33_640237-2B by adding 5 microlitres of each dilution of sample to a 384 well low volume assay plate (Costar, 3673). […] This was followed by the addition of 2.5 microlitres of a solution containing 0.12 nM biotinylated human IL-33-01 combined with 0.75 nM streptavidin cryptate detection (Cisbio International, 610SAKLB). All dilutions were performed in assay buffer containing 0.8 M potassium fluoride (VWR, 26820.236) and 0.1% bovine serum albumin (BSA, PAA, K05-013) in Dulbeccos PBS (Invitrogen, 14190185). Assay plates were incubated for 4 hours at room temperature followed by 18 hours at 4 degrees Celsius and time resolved fluorescence was read at 620 nm and 665 nm emission wavelengths using an EnVision plate reader (Perkin Elmer). Data were analysed by calculating the 665/620 nm ratio followed by the % Delta F values for each sample. The 665/620 nm ratio was used to correct for sample interference using Equation 1. The % Delta F for each sample was then calculated using Equation 2. The negative control (non-specific binding) was defined by replacing biotinylated human IL-33 combined with streptavidin cryptate detection with streptavidin cryptate detection only. The % Delta F values were subsequently used to calculate % specific binding as described in Equation 3. IC₅₀ values were determined using GraphPad Prism software by curve fitting using a four-parameter logistic equation (Equation 4).

[3] = molecular target: T3, Cynomolgus IL-33 Flag®His (cynomolgus monkey); experiment: as above
T3 construct: C-terminal FLAG 10xHis tag, E. coli; also called Mature Cynomolugus IL-33; cyno IL-33 FH
T3 chain: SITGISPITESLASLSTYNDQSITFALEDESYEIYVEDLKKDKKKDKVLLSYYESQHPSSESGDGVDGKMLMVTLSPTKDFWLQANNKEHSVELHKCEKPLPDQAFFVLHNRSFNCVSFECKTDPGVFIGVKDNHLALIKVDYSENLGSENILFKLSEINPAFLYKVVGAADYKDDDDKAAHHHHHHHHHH
Procedure: as §1

[4] = molecular target: T4, Human IL-33 Flag®His (human); experiment: as above
T4 construct: Mature IL-33 with C-terminal FLAG 10xHis tag, from E. coli; biotinylated via free cysteines where used biotinylated; also called Mature Human IL-33_FH; human IL-33 FH
T4 chain: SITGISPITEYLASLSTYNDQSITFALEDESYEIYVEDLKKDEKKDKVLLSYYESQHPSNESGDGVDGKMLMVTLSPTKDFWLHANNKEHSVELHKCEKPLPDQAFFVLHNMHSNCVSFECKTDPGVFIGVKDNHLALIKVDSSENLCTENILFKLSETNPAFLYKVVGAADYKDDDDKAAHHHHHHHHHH
Procedure: as §1

[5] = molecular target: Human IL-1 beta (R&D Systems) (human, UniProt P01584 117-269); experiment: HTRF: unlabelled test protein competes with biotinylated human IL33-01 for DyLight650 labelled 33_640237-2B IgG
Method in brief: (§2)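 HTRF competition: dilutions of unlabelled test protein competed with biotinylated human IL-33-01 (0.12 nM solution, with 0.75 nM streptavidin cryptate) for DyLight650-labelled 33_640087-7B or 33_640237-2B, in DPBS with 0.8 M KF and 0.1% BSA. Incubation was 4 h at RT, then 18 h at 4 °C. The 665/620 nm ratio gave % specific binding; IC50 by four-parameter fit.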

[6] = molecular target: T5, Human IL-1 alpha (R&D Systems) (human, UniProt P01583 113-271); experiment: as above
T5 sequence (looked up): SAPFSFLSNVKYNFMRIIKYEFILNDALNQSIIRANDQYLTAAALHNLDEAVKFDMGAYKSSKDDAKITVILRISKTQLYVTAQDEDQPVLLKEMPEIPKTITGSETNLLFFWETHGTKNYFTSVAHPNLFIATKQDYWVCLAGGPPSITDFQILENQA
Method in brief: as §2

[7] = molecular target: T6, Rat IL-33 (GenScript) (rat, UniProt Q66H70 109-264, limits assumed); experiment: as above
T6 sequence (looked up): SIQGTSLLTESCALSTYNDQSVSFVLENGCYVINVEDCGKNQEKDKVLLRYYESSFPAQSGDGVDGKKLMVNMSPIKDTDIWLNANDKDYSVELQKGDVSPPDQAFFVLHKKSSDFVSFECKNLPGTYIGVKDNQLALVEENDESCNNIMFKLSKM
Method in brief: as §2

[8] = molecular target: T7, His10/Avi Human IL33-01 (human); experiment: cell-based or functional assay
T7 chain: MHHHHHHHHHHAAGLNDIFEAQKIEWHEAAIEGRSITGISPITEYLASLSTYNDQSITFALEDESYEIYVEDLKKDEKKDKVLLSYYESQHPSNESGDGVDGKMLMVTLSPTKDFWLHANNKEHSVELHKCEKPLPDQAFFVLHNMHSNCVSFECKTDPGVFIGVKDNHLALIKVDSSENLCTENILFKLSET

[9] = molecular target: T2, Mouse IL-33 Flag®His; experiment: phage ELISA
[10] = molecular target: T3, Cynomolgus IL-33 Flag®His; experiment: phage ELISA
[11] = molecular target: T4, Human IL-33 Flag®His; experiment: phage ELISA

binding result [1]: no binding
B1: IL-33 tryptic epitope peptide (full length synthetic epitope peptide) (peptide)
peptide: MLMVTLSPTKDFWLHANNKEHSVELHK
notes: Chemically synthesised; also called predicted tryptic IL-33 fragment

binding result [2]: no binding
binding result [3]: binds
binding result [4]: binds
binding result [5]: no binding (tested: about 10^-5.8 M)
binding result [6]: no binding (tested: about 10^-5.8 M)
binding result [7]: no binding (tested: about 10^-5.5 M)
IC50 (nM) vs. His Avi IL-33, Huvec IL-8 assay [8]: 0.067 nM
B2: 33_640237-2B IgG1 (antibody, V domains shown)
VH: EVQLLESGGGLVQPGGSLRLSCAASGFTFSSYAMSWVRQAPGKGLEWVSGIADDFTSTYYADPVKGRFTISRDNSKNTLYLQMNSLRAEDTAVYYCARDLWMMNYAGGLRYPFGYWGQGTMVTVSS
VL: SYVLTQPPSVSVSPGQTASITCSGERMGDKYAAWYQQKPGQSPVLVIYRDTKRPSGIPERFSGSNSGNTATLTISGTQAMDEADYYCGVLKQDTGVFGGGTKLTVL
notes: IgG1

binding result [9]: no binding
binding result [10]: no binding
binding result [11]: binds
B3: IL330180 scFv (scFv, V domains shown)
VH: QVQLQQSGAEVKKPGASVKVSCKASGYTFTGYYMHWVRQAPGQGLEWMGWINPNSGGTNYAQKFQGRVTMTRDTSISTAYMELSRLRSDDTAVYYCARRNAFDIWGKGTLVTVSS
VL: QPVLTQPPSVSEAPRQRVTISCSGSSSNIGNNAVNWYQQLPGTAPKLLIYRNNQRPSGVPDRFSGSKSGTSASLAISGLRSEDEADYYCAAWDDSLSGWVFGGGTKVNVL

From US20200353078A1 (AstraZeneca / MedImmune, published 2020)
